7 molecules from patent publication US20240252534A1 (AUTOLUS, published 2024) can be followed below.

Broadly, the EC50 (read off the curve) is the midpoint of the concentration-response curve. Read a high EC50 (read off the curve) as a need for much substance. Usually Kd stands for the constant that tells how readily two partners part at equilibrium.

In assay [1] the target is T1, human PSMA expressed on cells (human, UniProt Q04609 1-750).
T1 construct: whole, on cells; also called SupT1-PSMA; SupT1 cells expressing PSMA
T1 sequence (Q04609 whole entry): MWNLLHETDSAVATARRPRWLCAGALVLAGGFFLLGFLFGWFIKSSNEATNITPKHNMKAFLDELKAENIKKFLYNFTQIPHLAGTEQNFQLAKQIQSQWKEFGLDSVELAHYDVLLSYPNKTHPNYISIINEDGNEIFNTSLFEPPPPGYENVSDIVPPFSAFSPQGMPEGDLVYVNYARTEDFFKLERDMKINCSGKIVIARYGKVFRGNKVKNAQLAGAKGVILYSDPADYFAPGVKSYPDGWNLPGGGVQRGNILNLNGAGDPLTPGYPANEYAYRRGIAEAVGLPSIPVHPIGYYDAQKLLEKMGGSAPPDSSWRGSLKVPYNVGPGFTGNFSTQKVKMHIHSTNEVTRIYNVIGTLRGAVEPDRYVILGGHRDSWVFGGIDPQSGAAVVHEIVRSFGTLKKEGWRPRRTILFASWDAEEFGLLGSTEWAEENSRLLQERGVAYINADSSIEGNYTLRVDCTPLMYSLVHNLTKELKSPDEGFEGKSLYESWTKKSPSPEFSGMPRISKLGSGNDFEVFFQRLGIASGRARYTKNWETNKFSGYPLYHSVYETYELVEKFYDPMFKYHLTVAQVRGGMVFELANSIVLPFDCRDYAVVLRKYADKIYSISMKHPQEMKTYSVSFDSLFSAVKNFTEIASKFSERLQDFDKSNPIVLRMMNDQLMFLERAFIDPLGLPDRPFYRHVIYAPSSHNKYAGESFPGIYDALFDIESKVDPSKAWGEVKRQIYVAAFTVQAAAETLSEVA
Nature of the assay: flow cytometry, MFI against concentration, SupT1-PSMA clone 30 (high).

Assay [2] addresses T2, Recombinant PSMA-His (sino biologicals) (UniProt Q04609 44-750).
T2 construct: also called soluble PSMA; recombinant soluble PSMA; not shown: His tag
Nature of the assay: SPR, Biacore T200; VHH-Fc captured on Protein A chip, PSMA-His as analyte, 1:1 Langmuir fit. On the procedure: (§1) Kinetic affinity for soluble PSMA was determined using Biacore T200 instrument. Recombinant purified antibodies were captured on a Protein A chip #7 at 10 μl/min for 60 s, aiming at 100 RU. Recombinant PSMA-His (sino biologicals) dialysed in HBS-P+ buffer was used as analyte from 1 μM with 1:2 serial dilutions for 10 points and flown at 30 μl/min for 150 s with 300 s dissociation time. A double reference subtraction was applied. Sensograms fitted with 1:1 Langmuir model.
Affinity was determined by surface plasmon resonance on a Biacore T200 instrument against recombinant soluble PSMA. Affinities were measured in the nM range for both antibodies (Table 3)
In general terms: SPR reads the build-up and loss of mass on a sensor chip optically.

Assay [3] concerns the target T2, Recombinant PSMA-His (sino biologicals). Nature of the assay: SPR, Biacore T200, pH 6.5; antibody captured on Protein A chip, PSMA-His as analyte, 1:1 Langmuir fit. On the procedure: as §1, with “soluble PSMA at different pH was determined” for “soluble PSMA was determined”, “A chip #6, pre-equilibrated the required PH (pH7.4, pH7, pH6.5 and pH6) using buffered HBS-P+, at 10” for “A chip #7 at 10”, “dialysed in HBS-P+buffer and adjusted to the required PH was used” for “dialysed in HBS-P+ buffer was used”

For assay [4] the target is unchanged. Description: SPR, Biacore T200, pH 7; antibody captured on Protein A chip, PSMA-His as analyte, 1:1 Langmuir fit. On the procedure: as §1, with “soluble PSMA at different pH was determined” for “soluble PSMA was determined”, “A chip #6, pre-equilibrated the required PH (pH7.4, pH7, pH6.5 and pH6) using buffered HBS-P+, at 10” for “A chip #7 at 10”, “dialysed in HBS-P+buffer and adjusted to the required PH was used” for “dialysed in HBS-P+ buffer was used”

For assay [5] the target is unchanged. Nature of the assay: SPR, Biacore T200, pH 7.4; antibody captured on Protein A chip, PSMA-His as analyte, 1:1 Langmuir fit. On the procedure: as §1, with “soluble PSMA at different pH was determined” for “soluble PSMA was determined”, “A chip #6, pre-equilibrated the required PH (pH7.4, pH7, pH6.5 and pH6) using buffered HBS-P+, at 10” for “A chip #7 at 10”, “dialysed in HBS-P+buffer and adjusted to the required PH was used” for “dialysed in HBS-P+ buffer was used”

Assay [6] has the same target. Nature of the assay: SPR, Biacore T200, pH 6; antibody captured on Protein A chip, PSMA-His as analyte, 1:1 Langmuir fit. On the procedure:
as §1, with “soluble PSMA at different pH was determined” for “soluble PSMA was determined”, “A chip #6, pre-equilibrated the required PH (pH7.4, pH7, pH6.5 and pH6) using buffered HBS-P+, at 10” for “A chip #7 at 10”, “dialysed in HBS-P+buffer and adjusted to the required PH was used” for “dialysed in HBS-P+ buffer was used”

Assay [7] addresses T1, human PSMA expressed on cells. Nature of the assay: flow cytometry histograms, detection aMu-Fc 647, concentration and axis values not given. (In general: In flow cytometry, cells or beads pass a laser one at a time.)

T2 sequence (Q04609 44-750 limits assumed): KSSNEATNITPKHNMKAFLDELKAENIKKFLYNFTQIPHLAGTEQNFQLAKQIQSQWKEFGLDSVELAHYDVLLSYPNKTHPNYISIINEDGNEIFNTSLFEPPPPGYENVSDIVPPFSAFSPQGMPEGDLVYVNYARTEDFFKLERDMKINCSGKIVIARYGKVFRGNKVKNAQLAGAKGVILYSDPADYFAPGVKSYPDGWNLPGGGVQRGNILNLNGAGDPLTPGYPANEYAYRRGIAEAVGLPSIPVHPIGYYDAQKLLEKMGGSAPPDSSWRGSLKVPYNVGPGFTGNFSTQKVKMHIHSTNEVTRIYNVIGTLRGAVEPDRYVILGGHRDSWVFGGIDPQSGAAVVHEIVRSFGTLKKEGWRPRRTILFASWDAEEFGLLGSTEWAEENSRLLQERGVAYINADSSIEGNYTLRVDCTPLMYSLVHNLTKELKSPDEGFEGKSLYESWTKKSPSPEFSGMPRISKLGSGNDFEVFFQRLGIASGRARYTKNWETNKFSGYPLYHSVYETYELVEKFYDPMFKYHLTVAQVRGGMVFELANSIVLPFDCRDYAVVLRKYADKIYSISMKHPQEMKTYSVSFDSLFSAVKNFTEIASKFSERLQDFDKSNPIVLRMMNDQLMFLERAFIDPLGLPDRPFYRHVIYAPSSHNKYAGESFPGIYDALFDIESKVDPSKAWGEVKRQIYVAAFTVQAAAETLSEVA

B1: dAb clone B8, C Myc tagged (VHH)
VHH: QVQLQQSGGGLVQAGGSLRLSCAASGRTYGRYVMGWFRQIPGKEREFVAAISWSGSNTNYADSVKGRFTISRDNAKNTLYLQMNSLKPEDTAVYYCAASGQWIIPTTARGYDDWGQGTQVTVSS
notes: Monomeric dAb from IPTG-induced TG1 supernatant, detected with anti-C Myc; also called B08; not shown: C-Myc tag
For the molecule B1, the “EC50 (read off the curve)” value in assay [1] was around 1 µg/mL.

B2: B08 VHH-Fc (Fc fusion)
chain: B1 VHH
notes: also called B8; clone B8; not shown: Fc part of the VHH-Fc format
Regarding B2, the Kd in assay [2] was 212 nM.

B3: dAb clone G7, C Myc tagged (VHH)
VHH: QVQLQESGGGSVQAGGSLRLSCAASERTFSTYGTGWFRQAPGKEREFVAGISGRGGYTSYIDSVKGRFTTSRDNAKNTVYLQMNSLKPEDTAVYYCAADRRMVWGTVRSPDEYDSWGQGTQVTVSS
notes: Monomeric dAb from IPTG-induced TG1 supernatant, detected with anti-C Myc; also called G07; not shown: C-Myc tag
Consider B3, for which the “EC50 (read off the curve)” value in assay [1] is around 0.7 µg/mL.

B4: G07 VHH-Fc (Fc fusion)
chain: B3 VHH
notes: also called G7; clone G7; not shown: Fc part of the VHH-Fc format
B4: the Kd in assay [2] worked out at 316 nM.

B5: 7A12 humanised (antibody, V domains shown)
VH: QVQLVQSGAEVKKPGASVKVSCKASGYTFTSSWMNWVRQAPGQGLEWMGRIYPGDGDTNYAQKFQGRVTMTRDTSISTAYMELSRLRSDDTAVYYCARGTGYLWYFDVWGQGTMVTVSS
VL: EIVLTQSPATLSLSPGERATLSCRASQDINENLAWYQQKPGQAPRLLIYYTSNRATGIPARFSGSGSGRDFTLTISSLEPEDFAVYYCQQYDNLPFTFGQGTKVEIKR
notes: Tested as 'recombinant purified antibody' captured on a Protein A chip; also called hu7A12; AU number 42396
Turning to B5, the Kd was determined as 1.71 nM in assay [3], 3.3 nM in assay [4], 3.66 nM in assay [5] and 0.532 nM in assay [6].

B6: NGS2 dAb in murine IgG2A-Fc format (Fc fusion)
chain: QVQLQESGGGWVQAGGSLRLSCAASGRTSRTYTMGWFRQAPGKDGVFVAGITWSTWSSDKTQYLDSVNSRFTISRDNARNTVYLQMNNLKPEDTAVYYCAATPRYYGVAVPTTRGPYDYWGQGTQVTVSS
notes: also called clone 2; dAb 2; not shown: murine IgG2A Fc
Regarding B6, the binding result in assay [7] is “binds”.

B7: 7A12 (antibody, V domains shown)
VH: QFQLQQSGPELVKPGASVKISCKASGYAFSSSWMNWVRQRPGKGLEWIGRIYPGDGDTTYNGNFKDKATLTAAKSSSTAYIQINSLTSEDSAVYFCARGTGYLWYFDVWGAGTTVTVSS
VL: DIQMTQSPSSLSTSLGGKVTITCKASQDINENVAWYQHKPGKGPRLLIWYTSALQSGIPSRFSGSGSGRDYSFSISNLEPEDIATYYCQQYDNLPFTFGSGTKLEIKR
notes: Tested as 'recombinant purified antibody' captured on a Protein A chip; also called mu7A12; AU number 30531
For B7, the Kd in assay [3] turned out to be 1.02 nM; in assay [4] it was 1.77 nM; in assay [5] it was 2.29 nM; in assay [6], 0.574 nM.
